# Columns and labels:
# [1] = molecular target: angiotensin AT4 receptor of Macaca fascicularis brain (Macaca fascicularis); assay: competition for [125I]Ang IV binding, monkey prefrontal cortical sections
# [2] = molecular target: AT4 receptor of sheep central nervous system (sheep); assay: competition for [125I]Ang IV binding, sheep cerebellar cortical membranes
# [3] = molecular target: AT4 receptor of sheep central nervous system (sheep); assay: competition for 125I-LVV-haemorphin-7 binding, sheep cerebellar cortical membranes
# [4] = molecular target: embryonic chicken AT4 receptor (chicken); assay: competition for [125I]Ang IV binding, E13 chicken chorioallantoic membranes
# [5] = molecular target: embryonic chicken Ang II receptor (chicken); assay: competition for 125I[Sar1Ile8]Ang II binding, E13 chicken chorioallantoic membranes
# Chain of embryonic chicken Ang II receptor (chicken) (P79785 whole entry): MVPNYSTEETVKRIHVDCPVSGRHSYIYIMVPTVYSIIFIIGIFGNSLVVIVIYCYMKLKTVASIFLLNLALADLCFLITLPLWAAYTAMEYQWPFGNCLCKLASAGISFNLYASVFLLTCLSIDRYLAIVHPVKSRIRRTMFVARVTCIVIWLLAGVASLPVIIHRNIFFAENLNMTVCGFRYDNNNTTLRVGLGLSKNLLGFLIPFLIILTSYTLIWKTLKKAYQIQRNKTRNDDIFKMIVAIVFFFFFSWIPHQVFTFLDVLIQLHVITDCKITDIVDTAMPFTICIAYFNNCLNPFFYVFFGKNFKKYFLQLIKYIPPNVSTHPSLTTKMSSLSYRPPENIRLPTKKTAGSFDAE
Substance,IC50 [1] [nM],IC50 [2] [nM],IC50 [3] [nM],concentration effective at competing for 50% of the sites [4] [µM],IC50 [5] [nM]
angiotensin III (from UniProt P01019 26-32) (peptide),80,6.9,77,–,–
CGP 42112 (peptide),–,–,–,0.5,180
angiotensin II (from UniProt P01019 25-32) (peptide),730,2000,1600,–,100

# Source: US20020147129A1
